Experimental data as given in article PMC8642242.

Molecular target: SARS-CoV-1 (Sino 1-11) RBD, His-tagged (SARS-CoV-1)

WRAIR-2063 (human IgG1) (antibody)
IC50 of neutralization of SARS-CoV-1 (Sino 1-11) pseudovirus: 0.095 µg/mL
